Target: inactive C105A human m-calpain heterodimer (C105A large subunit with truncated small subunit) (human, UniProt P17655 20-700; P04632 1-268, C105A, Ca2+-bound during hCSD1 binding. C-terminal His tag of the large subunit omitted. The ΔG2 small-subunit limits are not printed (they are in the cited Hata 2012 paper); the 184-residue small subunit of)
Assay: BLI; GST-immobilized hCSD1; purified C105A-calpain from the affinity method in solution
Settings: both partners purified

B1: N-terminal glutathione S-transferase-tagged human calpastatin domain 1 (domain or fragment, UniProt P20810 137-277, looked up)
chain: AVPVESKPDKPSGKSGMDAALDDLIDTLGGPEETEEENTTYTGPEVSDPMSSTYIEELGKREVTIPPKYRELLAKKEGITGPPADSSKPIGPDDAIDALSSDFTCGSPTAAGKKTEKEESTEVLKAQSAGTVRSAAPPQEK
notes: synthetic gene in pGEX-4T-1; GST is fused N-terminally through a linker; the tag can be removed by thrombin; also called GST-hCSD1; GST-tagged hCSD1; source: E. coli BL21(DE3), purified (GSTrap FF); not shown: GST, N-terminal, kept
  Kd: 1.7 nM

Source: publication PMC5358782, “Affinity purification of human m-calpain through an intrinsically disordered inhibitor, calpastatin” (PLoS ONE, 2017)
